Reference: US20120244577A1 (Zymeworks, published 2012)

B1: Albumin based Transporter polypeptide 1-Ver 1 (other)
chain: DAHKSEVAHRFKDLGEENFKALVLIAFAQYLQQCPFEDHVKLVNEVTEFAKTCVADESAENCDKSLHTLFGDKLCTVATLRETYGEMADCCAKQEPERNECFLQHKDDNPNLPRLVRPEVDVMCTAFHDNEETFLKKYLYEIARRHPYFYAPELLFFAKRYKAAFTECCQAADKAACLLPKLDELRDEGKASSAKQRLKCASLQKFGERAFKAWAVARLSQRFPKAEFAEVSKLVTDLTKVHTECCHGDLLECADDRADLAKYICENQDSISSKLKECCEKPLLEKSHCIAEV
notes: also called ABH1 segment 1:293
B2: Albumin based Transporter polypeptide 1-Ver 2 (other)
chain: DAHKSEVAHRFKDLGEENFKALVLIAFAQYLQQCPFEDHVKLVNEVTEFAKTCVADESAENCDKSLHTLFGDKLCTVATLRETYGEMADCCAKQEPERNECFLQHKDDNPNLPRLVRPEVDVMCTAFHDNEETFLKKYLYEIARRHPYFYAPELLFFAKRYKAAFTECCQAADKAACLLPKLDELRDEGKASSAKQRLKCASLQKFGERAFKAWAVARLSQRFPKAEFAEVSKLVTDLTKVHTECCHGDLLECADDRADLAKYICENQDSISSKLKECCEKPLLEKSHCIAEVENDEMPADLPSLAADFVESKDVCKNYAEAKDVFLGMFLYEYARA
notes: First chain of ABH2; also called F1; ABH2 segment 1:337

Target: the molecule itself
Experiment: co-expression in CHO-3E7, gel analysis (FIG. 6)
Protocol: High level and high-throughput recombinant protein production by transient transfection of suspension-growing […] CHO-3E7 was performed. See Table 3 for construct boundaries of the two scaffolds described here: Albumin based heteromultimer 1 (ABH1) and Albumin based heteromultimer 2 (ABH2). Albumin based heteromultimer 2 comprises one disulfide bond between the two transporter polypeptides, while Albumin based heteromultimer 1 is formed entirely by non-covalent interactions. FIG. 6A provides SDS-PAGE (non-reducing) gel analysis of the two heteromultimer constructs (ABH1 and ABH2), after co-expression (different DNA transfection ratios are shown). WT full-length HSA is shown as control. As expected, ABH2 retains the disulfide linkage in non-reducing SDS-PAGE, with a MW roughly double the non-disulfide linked ABH1. FIG. 6B provides Native gel analysis of the two Albumin based heteromultimer constructs (ABH1 and ABH2), after co-expression (1:1 DNA level). WT full-length HSA is shown as control. […]
WT-HSA and the two Albumin based heteromultimers (ABH1 and ABH2) were expressed in CHO-3E7 cell line grown in suspension in FreeStyle F17 medium (Invitrogen) supplemented with 0.1% w/v pluronic and 4 mM glutamine. […] At 24-48 hours, GFP positive cells should be between 30-60% as determined by flow cytometry.

Protein	binding result
B1	no binding
B2	no binding
